# Measurements as given in PMC11254934.
# No end group written: not given here. *: point of attachment. G0F = octasaccharide N-glycan with core α-1,6-fucose, CC(=O)N[C@@H]1[C@@H](O)[C@H](O[C@@H]2O[C@H](CO)[C@@H](O[C@@H]3O[C@H](CO[C@H]4O[C@H](CO)[C@@H](O)[C@H](O)[C@@H]4O[C@@H]4O[C@H](CO)[C@@H](O)[C@H](O)[C@H]4NC(C)=O)[C@@H](O)[C@H](O[C@H]4O[C@H](CO)[C@@H](O)[C@H](O)[C@@H]4O[C@@H]4O[C@H](CO)[C@@H](O)[C@H](O)[C@H]4NC(C)=O)[C@@H]3O)[C@H](O)[C@H]2NC(C)=O)[C@@H](CO[C@@H]2O[C@@H](C)[C@@H](O)[C@@H](O)[C@@H]2O)O[C@H]1*
# Target: anti-fuc-PSA mAb 2E9 (rabbit)
# Sequence (heavy, as listed by the source, chain 1 of 2): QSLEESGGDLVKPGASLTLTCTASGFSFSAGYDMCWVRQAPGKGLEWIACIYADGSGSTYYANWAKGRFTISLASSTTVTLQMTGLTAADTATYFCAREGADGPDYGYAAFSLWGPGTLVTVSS
# Sequence (light, as listed by the source, chain 2 of 2): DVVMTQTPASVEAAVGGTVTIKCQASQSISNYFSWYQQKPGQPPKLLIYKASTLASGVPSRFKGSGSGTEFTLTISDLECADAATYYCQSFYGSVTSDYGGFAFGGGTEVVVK
# Test: SPR; Biacore 8k, 37 °C, HBS-ET (10 mM HEPES pH 7.4, 150 mM NaCl, 3 mM EDTA, 0.005% Tween 20) with 1 mg/mL carboxymethyl dextran; rabbit IgG from culture supernatant captured by goat anti-rabbit Fcγ on CM5; peptides injected at 0, 11, 33, 100, 300, 900 nM; Langmuir fit
binder,measurement,value
IRN(G0F)KSVILLGRHS [PSA(67–79)-G0F],BL (binding late),27 RU
same,Kd,0.6 nM
same,stoichiometry N,2
same,t1/2 (antibody–antigen complex half-life),10 min
